These results are taken from the RNAGym collection of RNA variant scans (doi:10.1093/molbev/msab373).

First the molecules themselves.
B1: Azoarcus group I ribozyme (parent)
chain: GUGCCUUGCGCCGGGAAACCACGCAAGGGAUGGUGUCAAAUUCGGCGAAACCUAAGCGCCCGCCCGGGCGUAUGGCAACGCCGAGCCAAGCUUCGGCGCCUGCGCCGAUGAAGGUGUAGAGACUAGACGGCACCCACCUAAGGCAAACGCUAUGGUGAAGGCAUAGUCCAGGGAGUGGCGAAAGUCACACAAACCGG

In the series the parent is B1. Put plainly: reverse-splicing fitness (ratio to wild type); higher = more active; in vitro selection; Mg2+ level not given. The procedure, abridged: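 An in vitro group I ribozyme library with randomized positions was T7-transcribed and gel-purified. In triplicate, 10 pmol RNA in EPPS pH 7.5 was reacted with 50 pmoles of a 30-nt RNA substrate for 1 h at 37 °C across several added MgCl2 levels (1–48 mM), then stopped with EDTA. Products were reverse transcribed from a substrate-complementary primer, PCR-amplified and sequenced (HiSeq 4000). Fitness is a variant's read proportion after selection over that before, normalised to wild type.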
Regarding GUGCCUUGCGCCGGGAAACCACGCAAGGGAUGGUGUCAAAUUCGGCGAAACCUAAGCGCCCGCCCGGGCGUAUGGCAACGCGGAGCCAAGCUUCGGCGCCUGCGCCGAUGGAGGUGUAGGGACUAGACGGCACCCACCUAAGGCCAACGUUAUGGUGAAGGCAUAGUCCAGGGAGGGGCGAAAGUCACACAAACCGG, the reverse-splicing fitness came to 0.00599.

Take GUGCCUUGCGCCGGGAAACCACGCAAGGGAUGGUGUCAAAUUCGGCGAAACCUAAGCGCCCGCCCGGGCGUAUGGCAACGCUGAGCCAAGCUUCGGCGCCUGCGCCGAUGCAGGUGUAGUGACUAGACGGCACCCACCUAAGGCGAACGCUAUGGUGAAGGCAUAGUCGAGGGAGAGGCGAAAGUCACACAAACCGG: the reverse-splicing fitness stood at 0.00323. On to GUGCCUUGCGCCGGGAAACCACGCAAGGGAUGGUGUCAAAUUCGGCGAAACCUAAGCGCCCGCCCGGGCGUAUGGCAACGCGGAGCCAAGCUUCGGCGCCUGCGCCGAUGGAGGUGUAGUGACUAGACGGCACCCACCUAAGGCUAACGGUAUGGUGAAGGCAUAGUCGAGGGAGAGGCGAAAGUCACACAAACCGG, for which the reverse-splicing fitness turned out to be 0.0025. As to GUGCCUUGCGCCGGGAAACCACGCAAGGGAUGGUGUCAAAUUCGGCGAAACCUAAGCGCCCGCCCGGGCGUAUGGCAACGCCGAGCCAAGCUUCGGCGCCUGCGCCGAUGCAGGUGUAGUGACUAGACGGCACCCACCUAAGGCAAACGUUAUGGUGAAGGCAUAGUCCAGGGAGGGGCGAAAGUCACACAAACCGG, the reverse-splicing fitness is 0.0367. Regarding GUGCCUUGCGCCGGGAAACCACGCAAGGGAUGGUGUCAAAUUCGGCGAAACCUAAGCGCCCGCCCGGGCGUAUGGCAACGCAGAGCCAAGCUUCGGCGCCUGCGCCGAUGGAGGUGUAGAGACUAGACGGCACCCACCUAAGGCGAACGAUAUGGUGAAGGCAUAGUCAAGGGAGGGGCGAAAGUCACACAAACCGG, the reverse-splicing fitness amounted to 0.00749.

With GUGCCUUGCGCCGGGAAACCACGCAAGGGAUGGUGUCAAAUUCGGCGAAACCUAAGCGCCCGCCCGGGCGUAUGGCAACGCAGAGCCAAGCUUCGGCGCCUGCGCCGAUGUAGGUGUAGAGACUAGACGGCACCCACCUAAGGCGAACGGUAUGGUGAAGGCAUAGUCUAGGGAGAGGCGAAAGUCACACAAACCGG, the reverse-splicing fitness came to 0.0134. In the case of GUGCCUUGCGCCGGGAAACCACGCAAGGGAUGGUGUCAAAUUCGGCGAAACCUAAGCGCCCGCCCGGGCGUAUGGCAACGCUGAGCCAAGCUUCGGCGCCUGCGCCGAUGCAGGUGUAGAGACUAGACGGCACCCACCUAAGGCGAACGUUAUGGUGAAGGCAUAGUCAAGGGAGGGGCGAAAGUCACACAAACCGG it was 0.00752; in that of GUGCCUUGCGCCGGGAAACCACGCAAGGGAUGGUGUCAAAUUCGGCGAAACCUAAGCGCCCGCCCGGGCGUAUGGCAACGCUGAGCCAAGCUUCGGCGCCUGCGCCGAUGGAGGUGUAGCGACUAGACGGCACCCACCUAAGGCCAACGGUAUGGUGAAGGCAUAGUCGAGGGAGAGGCGAAAGUCACACAAACCGG, 0.00761. As to GUGCCUUGCGCCGGGAAACCACGCAAGGGAUGGUGUCAAAUUCGGCGAAACCUAAGCGCCCGCCCGGGCGUAUGGCAACGCGGAGCCAAGCUUCGGCGCCUGCGCCGAUGUAGGUGUAGGGACUAGACGGCACCCACCUAAGGCCAACGAUAUGGUGAAGGCAUAGUCUAGGGAGGGGCGAAAGUCACACAAACCGG, the reverse-splicing fitness came to 0.00529. In the case of GUGCCUUGCGCCGGGAAACCACGCAAGGGAUGGUGUCAAAUUCGGCGAAACCUAAGCGCCCGCCCGGGCGUAUGGCAACGCGGAGCCAAGCUUCGGCGCCUGCGCCGAUGUAGGUGUAGAGACUAGACGGCACCCACCUAAGGCUAACGCUAUGGUGAAGGCAUAGUCAAGGGAGGGGCGAAAGUCACACAAACCGG it was 0.00626. Take GUGCCUUGCGCCGGGAAACCACGCAAGGGAUGGUGUCAAAUUCGGCGAAACCUAAGCGCCCGCCCGGGCGUAUGGCAACGCGGAGCCAAGCUUCGGCGCCUGCGCCGAUGCAGGUGUAGGGACUAGACGGCACCCACCUAAGGCUAACGGUAUGGUGAAGGCAUAGUCAAGGGAGGGGCGAAAGUCACACAAACCGG: the reverse-splicing fitness worked out at 0.00496. On to GUGCCUUGCGCCGGGAAACCACGCAAGGGAUGGUGUCAAAUUCGGCGAAACCUAAGCGCCCGCCCGGGCGUAUGGCAACGCCGAGCCAAGCUUCGGCGCCUGCGCCGAUGUAGGUGUAGUGACUAGACGGCACCCACCUAAGGCUAACGUUAUGGUGAAGGCAUAGUCCAGGGAGUGGCGAAAGUCACACAAACCGG, for which the reverse-splicing fitness stood at 0.405. The same measure for GUGCCUUGCGCCGGGAAACCACGCAAGGGAUGGUGUCAAAUUCGGCGAAACCUAAGCGCCCGCCCGGGCGUAUGGCAACGCAGAGCCAAGCUUCGGCGCCUGCGCCGAUGCAGGUGUAGCGACUAGACGGCACCCACCUAAGGCAAACGGUAUGGUGAAGGCAUAGUCCAGGGAGUGGCGAAAGUCACACAAACCGG: 0.0074; for GUGCCUUGCGCCGGGAAACCACGCAAGGGAUGGUGUCAAAUUCGGCGAAACCUAAGCGCCCGCCCGGGCGUAUGGCAACGCGGAGCCAAGCUUCGGCGCCUGCGCCGAUGGAGGUGUAGCGACUAGACGGCACCCACCUAAGGCCAACGGUAUGGUGAAGGCAUAGUCCAGGGAGGGGCGAAAGUCACACAAACCGG: 0.0035. In the case of GUGCCUUGCGCCGGGAAACCACGCAAGGGAUGGUGUCAAAUUCGGCGAAACCUAAGCGCCCGCCCGGGCGUAUGGCAACGCAGAGCCAAGCUUCGGCGCCUGCGCCGAUGGAGGUGUAGCGACUAGACGGCACCCACCUAAGGCUAACGGUAUGGUGAAGGCAUAGUCCAGGGAGUGGCGAAAGUCACACAAACCGG, the reverse-splicing fitness amounted to 0.011.
